Experimental data reported in the supplement of paper PMC7877785.
± gives the uncertainty stated by the source.

Assay: self-splicing fitness, log relative to wild type (ln ratio); higher = more splicing; Tetrahymena group I intron in knt gene, E. coli kanamycin selection, DiMSum; sequences stand for … in CUCUCU…GGAGGGAAAAGUUAUCAGGCAUGCACCUGGUAGCUAGUCUUUAAACCAAUAGAUUGCAUCGGUUUAAAAGGCAAGACCGUCAAAUUGCGGGAAAGGGGUCAACAGCCGUUCAGUACCAAGUCUCAGGGGAAACUUUGAGAUGGCCUUGCAAAGGGUAUGGUAAUAAGCUGACGGACAUGGUCCUAACCACGCAGCCAAGUCCUAAGUCAACAGAUCUUCUGUUGAUAUGGAUGCAGUUCACAGACUAAAUGUCGGUCGGGGAAGAUGUAUUCUUCUCAUAAGAUAUAGUCGGACCUCUCCUUAAUGGGAGCUAGCGGAUGAAGUGAUGCAACACUGGAGCCGCUGGGAACUAAUUUGUAUGCGAAAGUAUAUUGAUUAGUUUUGGAGUACUCGUGGUCG
Outline: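 A randomised library covering all eight P1ex-region intron nucleotides was built with the intron in the knt kanamycin-resistance gene on pET-22b(+) and held in E. coli BL21(DE3). Cells were grown overnight at 37°C or 30°C on LB agar, with or without 25 μg/mL kanamycin, plus 100 μg/mL carbenicillin, 50 μM IPTG and 0.2% rhamnose, and pooled colonies were amplicon-sequenced on an Illumina HiSeq 2500. DiMSum fitness is the error-weighted combination of wild-type-normalised replicate fold changes, kanamycin versus none.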

Sequence: GCUCAGCAAUAUUACGCUUU
- self-splicing fitness (ln) (30 °C): -0.857 ± 0.077
- self-splicing fitness (ln) (37 °C): -0.887 ± 0.083

Sequence: GCUCAGCAAUAUUACGGAAA
- self-splicing fitness (ln) (30 °C): -1.62 ± 0.15
- self-splicing fitness (ln) (37 °C): -0.337 ± 0.12

Sequence: GCUCAGCAAUAUUACGGACA
- self-splicing fitness (ln) (30 °C): -1.25 ± 0.14
- self-splicing fitness (ln) (37 °C): -0.983 ± 0.13

Sequence: GCUCAGCAAUAUUACGGAGA
- self-splicing fitness (ln) (30 °C): -0.638 ± 0.095
- self-splicing fitness (ln) (37 °C): 0.284 ± 0.14

Sequence: GCUCAGCAAUAUUACGGUCU
- self-splicing fitness (ln) (30 °C): -0.866 ± 0.087
- self-splicing fitness (ln) (37 °C): -0.0674 ± 0.12

Sequence: GCUCAGCAAUAUUACGGUGG
- self-splicing fitness (ln) (30 °C): -2.89 ± 0.17
- self-splicing fitness (ln) (37 °C): -1.41 ± 0.11

Sequence: GCUCAGCAAUAUUACGGUUA
- self-splicing fitness (ln) (30 °C): -0.772 ± 0.12
- self-splicing fitness (ln) (37 °C): -0.237 ± 0.11

Sequence: GCUCAGCAAUAUUACGGUUG
- self-splicing fitness (ln) (30 °C): -4.11 ± 0.27
- self-splicing fitness (ln) (37 °C): -2.28 ± 0.24

Sequence: GCUCAGCAAUAUUACGUCAC
- self-splicing fitness (ln) (30 °C): -3.37 ± 0.22
- self-splicing fitness (ln) (37 °C): -2.06 ± 0.22

Sequence: GCUCAGCAAUAUUACGUGAG
- self-splicing fitness (ln) (30 °C): -4.29 ± 0.25
- self-splicing fitness (ln) (37 °C): -3.23 ± 0.2

Sequence: GCUCAGCAAUAUUACGUGUA
- self-splicing fitness (ln) (30 °C): -0.241 ± 0.058
- self-splicing fitness (ln) (37 °C): -0.00875 ± 0.067

Sequence: GCUCAGCAAUAUUACGUGUC
- self-splicing fitness (ln) (30 °C): -1.55 ± 0.078
- self-splicing fitness (ln) (37 °C): -0.662 ± 0.081

Sequence: GCUCAGCAAUAUUACGUUUU
- self-splicing fitness (ln) (30 °C): -1.13 ± 0.056
- self-splicing fitness (ln) (37 °C): 0.00509 ± 0.068

Sequence: GCUGAGCAAUAUUACGAAGU
- self-splicing fitness (ln) (37 °C): -1.72 ± 0.41

Sequence: GCUGAGCAAUAUUACGAUUC
- self-splicing fitness (ln) (30 °C): -0.602 ± 0.1
- self-splicing fitness (ln) (37 °C): -0.665 ± 0.11

Sequence: GCUGAGCAAUAUUACGCGAG
- self-splicing fitness (ln) (30 °C): -2.52 ± 0.16
- self-splicing fitness (ln) (37 °C): -1.83 ± 0.23

Sequence: GCUGAGCAAUAUUACGCUAU
- self-splicing fitness (ln) (30 °C): -3.25 ± 0.19
- self-splicing fitness (ln) (37 °C): -3.59 ± 0.28

Sequence: GCUGAGCAAUAUUACGCUGG
- self-splicing fitness (ln) (30 °C): -3.26 ± 0.31
- self-splicing fitness (ln) (37 °C): -2.22 ± 0.42

Sequence: GCUGAGCAAUAUUACGGAAU
- self-splicing fitness (ln) (30 °C): -3.57 ± 0.25
- self-splicing fitness (ln) (37 °C): -1.3 ± 0.17

Sequence: GCUGAGCAAUAUUACGGAUG
- self-splicing fitness (ln) (30 °C): -3.53 ± 0.18
- self-splicing fitness (ln) (37 °C): -1.22 ± 0.12

Sequence: GCUGAGCAAUAUUACGGCGC
- self-splicing fitness (ln) (30 °C): -0.35 ± 0.13
- self-splicing fitness (ln) (37 °C): -0.0749 ± 0.15

Sequence: GCUGAGCAAUAUUACGGCUG
- self-splicing fitness (ln) (30 °C): -1.57 ± 0.26
- self-splicing fitness (ln) (37 °C): -1.96 ± 0.44

Sequence: GCUGAGCAAUAUUACGUACA
- self-splicing fitness (ln) (30 °C): -2.45 ± 0.24
- self-splicing fitness (ln) (37 °C): -2.88 ± 0.28

Sequence: GCUGAGCAAUAUUACGUACU
- self-splicing fitness (ln) (30 °C): -1.76 ± 0.23
- self-splicing fitness (ln) (37 °C): -1.07 ± 0.27

Sequence: GCUGAGCAAUAUUACGUCAG
- self-splicing fitness (ln) (30 °C): -3.35 ± 0.24
- self-splicing fitness (ln) (37 °C): -2.15 ± 0.26

Sequence: GCUGAGCAAUAUUACGUGCG
- self-splicing fitness (ln) (30 °C): -1.62 ± 0.099
- self-splicing fitness (ln) (37 °C): -1.01 ± 0.14

Sequence: GCUGAGCAAUAUUACGUGCU
- self-splicing fitness (ln) (30 °C): -3.42 ± 0.12
- self-splicing fitness (ln) (37 °C): -3.39 ± 0.2

Sequence: GCUGAGCAAUAUUACGUUGC
- self-splicing fitness (ln) (30 °C): -4.04 ± 0.2
- self-splicing fitness (ln) (37 °C): -2.53 ± 0.17

Sequence: GCUUAGCAAUAUUACGAAAU
- self-splicing fitness (ln) (30 °C): -0.692 ± 0.076
- self-splicing fitness (ln) (37 °C): -0.498 ± 0.095

Sequence: GCUUAGCAAUAUUACGAAGA
- self-splicing fitness (ln) (30 °C): 0.387 ± 0.24
- self-splicing fitness (ln) (37 °C): -0.855 ± 0.15

Sequence: GCUUAGCAAUAUUACGACCG
- self-splicing fitness (ln) (30 °C): -1.2 ± 0.26
- self-splicing fitness (ln) (37 °C): -1.19 ± 0.29

Sequence: GCUUAGCAAUAUUACGAGCC
- self-splicing fitness (ln) (30 °C): -4.35 ± 0.39
- self-splicing fitness (ln) (37 °C): -1.53 ± 0.39

Sequence: GCUUAGCAAUAUUACGAGGC
- self-splicing fitness (ln) (37 °C): -1.93 ± 0.41

Sequence: GCUUAGCAAUAUUACGAUGC
- self-splicing fitness (ln) (30 °C): -1.43 ± 0.13
- self-splicing fitness (ln) (37 °C): -0.976 ± 0.21

Sequence: GCUUAGCAAUAUUACGAUUG
- self-splicing fitness (ln) (30 °C): -3.31 ± 0.25
- self-splicing fitness (ln) (37 °C): -1.01 ± 0.17

Sequence: GCUUAGCAAUAUUACGCAAU
- self-splicing fitness (ln) (30 °C): -0.651 ± 0.14
- self-splicing fitness (ln) (37 °C): -1.35 ± 0.13

Sequence: GCUUAGCAAUAUUACGCUAG
- self-splicing fitness (ln) (30 °C): -2.81 ± 0.12
- self-splicing fitness (ln) (37 °C): -2.19 ± 0.14

Sequence: GCUUAGCAAUAUUACGCUCG
- self-splicing fitness (ln) (30 °C): -0.579 ± 0.1
- self-splicing fitness (ln) (37 °C): -0.0325 ± 0.16

Sequence: GCUUAGCAAUAUUACGGAAG
- self-splicing fitness (ln) (30 °C): -2.07 ± 0.14
- self-splicing fitness (ln) (37 °C): -1.68 ± 0.14
